Source: the domain aggregation screens of Martell et al. (2025)

Assay: soluble fraction after stress (log2 fold change); higher = more stays soluble; pooled small domains, quantitative proteomics
Settings: stress: pH 4
Method in brief: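 Custom libraries of small protein domains were pooled and measured with high-throughput quantitative proteomics after pH 4 stress. The read-out is the fold change in the amount of each domain that stays soluble after the acid stress, taken as a measure of aggregation propensity. Fold changes are on a log2 scale, and higher values mean more of the domain stayed soluble.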

Question: For “HMNTAALSLQRRNEIKKWLLEEKTLTVAALSNRFNVTYETIRRDLEILEKEGFLKKVYGGAALNERV”, which “soluble fraction (log2)” value is on record?
Answer: 0.244

Question: Which “soluble fraction (log2)” value does the source give for “HMNTAIDGLIEKVGMFAMEKKAISVDQVKENFSINGEQAESVIKQLETIGVLGKKNEDGTHTVM” here?
Answer: -0.0986

Question: For “HMNTDALIGKTGYVTEIVGERHGRIQFSGGEWSARTEGVSIPVGAEVRVDRIDGATAVVSAV”, which “soluble fraction (log2)” value is on record?
Answer: 0.22

Question: For “HMNTDVEKQKVFTALFDDYFRRNSMTSLEKQLFLTALKTNFQNAQKTVAKDHPYYATYSLIISAIENYR”, which “soluble fraction (log2)” value is on record?
Answer: -0.936

Question: For “HMNTEEKILEKEFLMLYSELGLQPKNIYELMENTGLKYEKLVEMLLQLQLKGLVEQPSYNYYSRL”, which “soluble fraction (log2)” value is on record?
Answer: -2.46

Question: For “HMNTEEVGSYLKKLRLEHSFTQKELAGKLYITHQAVSNWEKGKALPDIGILSQLGDIYGISIDNLLLK”, which “soluble fraction (log2)” value is on record?
Answer: -0.551

Question: With “HMNTEKRVFAGVENTRLDHFLVEQFPEFSRTFIQQMIKSANVIVNGNIEKASYKLREGDTIMTRPM” as the sequence, how does the “soluble fraction (log2)” value read?
Answer: -0.0899

Question: With “HMNTELFTKNLFNKLEVLLGEKNWKSKTAQLLNISSDAFYKKIRNESQLNLHELLLIKDTFKISIDALLDE” as the sequence, how does the “soluble fraction (log2)” value read?
Answer: -0.929

Question: With “HMNTETAVTKAIDQIQVMMDLRNRSVSFTRDQETGTDIIKVIDDNTGDTIRQMPSEELLTFMKNLTQ” as the sequence, how does the “soluble fraction (log2)” value read?
Answer: -0.332

Question: For “HMNTFKNIFIQEGDLFNLKKNDNQIIFAKEGILINENKKIFRLLNGKIISTNNNRLIGFEFDKIDYNLSN”, which “soluble fraction (log2)” value is on record?
Answer: -0.0628

Question: With “HMNTGIPHQEVIKKLYSFAEGGDWKGLKEELNRIKEYTLFYNSVKELADSFEINRLIEKLKTYIF” as the sequence, how does the “soluble fraction (log2)” value read?
Answer: -0.0132

Question: For “HMNTGLSEREHEIAQLVLQGRTYAEIGAELFISPRTAEHHIGQIRRRLAATSRSDLLAKLRVAMNTTEGAG”, which “soluble fraction (log2)” value is on record?
Answer: -0.567

Question: Which “soluble fraction (log2)” value does the source give for “HMNTISYTELIKQIDEGNVEKVEMTVGSTSVKVKLQGQEEEKKAIVPNTQAFVELIQEKTLEGNQIDLKQN” here?
Answer: 0.0768

Question: Which “soluble fraction (log2)” value does the source give for “HMNTLSPVRILAILDGRSSMAEWQLAEELGVSIDNLSEILNKMSTDGQIRLVPSEDGRMVVP” here?
Answer: -0.0347

Question: With “HMNTPALRQRTQDVPALLIHFAKYFATKGQTPISFAPDFLEALKDYPWPGNVRELRNLVESMVV” as the sequence, how does the “soluble fraction (log2)” value read?
Answer: -0.0956

Question: Which “soluble fraction (log2)” value does the source give for “HMNTPHLTPREREVLKGIVDGLINKEIAARMGVSVATVITHRNNLTEKLGTRSVSALTIFAVMHGIVR” here?
Answer: -0.323

Question: For “HMNTPNYDVLYRGLADADAGQIMEALQKSNIPFKVDSHSGVLLVPADQVHEARLKLASQGLPRG”, which “soluble fraction (log2)” value is on record?
Answer: 0.00323

Question: For “HMNTPTLLLYGGKDHSVPEAGIRHLRAHLSANDRGEYRFYPNAPHLLLQSRQWQQVSQDISQWLAMT”, which “soluble fraction (log2)” value is on record?
Answer: 0.0454

Question: For “HMNTRWDDAAQTWLRKVIEQQPVLVQISAAKRLRDQAEQRAREAGEEVVTEQHVKRAGLELGFGEP”, which “soluble fraction (log2)” value is on record?
Answer: -0.239

Question: With “HMNTSITVPSLKGLSQEAATLKMERLGLHVEVSDTGFVRSLAFGTVLQQSIAPGEKVKPGRLVYITINSD” as the sequence, how does the “soluble fraction (log2)” value read?
Answer: 0.0638

Question: With “HMNTVAGAISDLSFKVRGSEDIEKLNRLKALSIQAKLDVQGQEEAERLISELEAKYGSLGMTVDKVSGKIA” as the sequence, how does the “soluble fraction (log2)” value read?
Answer: 0.192

Question: With “HMNTYEIIGGDNRARGPVTGEELSQWIREGRASGHTMARVSDGEHWQPLGSFPEFVGPLQGLPW” as the sequence, how does the “soluble fraction (log2)” value read?
Answer: -0.163

Question: Which “soluble fraction (log2)” value does the source give for “HMNTYVLPDALKSQLSVEDTGMLTKQLQALPETLAEGVLDSLSQMLSKNTLQNPVGWMLAVMKRAREGNFN” here?
Answer: -0.282

Question: For “HMNVAVSEADAKAAALERVSGATEADIRMELELDDGYYVYEGDIIYQQKEYEFEIDAQTGKFLKWSEER”, which “soluble fraction (log2)” value is on record?
Answer: 0.0965

Question: For “HMNVDLLEARIPIQSHGMRLDQVVAELFPDYSRNRLAAWIKEGRLTVDGKTMKPRDRALASAHVVLEVV”, which “soluble fraction (log2)” value is on record?
Answer: -0.197

Question: Which “soluble fraction (log2)” value does the source give for “HMNVGKYILTLAAKEGYSQSDVARRTGISRQMLSYIIAGERKLTLPQALKIESLLSLKTGTLILMQDED” here?
Answer: 0.219

Question: For “HMNVNEIREMYPEGTQIVLTEMRGENQMPYGLKGTVKFVDDAGQIHMKWENGSSLALNINEDTFEKVE”, which “soluble fraction (log2)” value is on record?
Answer: -0.471

Question: For “HMNVPATAEAYEALLADAESVGKSLWGHEAKRFAAEQALLSAGLREVIQVDPDKARELALRLRGLLDEYRG”, which “soluble fraction (log2)” value is on record?
Answer: -1.24

Question: Which “soluble fraction (log2)” value does the source give for “HMNVQGFVFDLAEPLDKVPSIEGFPLKLEDPLTLVAAVNKDRSINALFAELSKLNIKIKSMRNE” here?
Answer: -0.458

Question: Which “soluble fraction (log2)” value does the source give for “HMNVVSIEHIRTHLQNHLSLIGRSIEESFNEAKVIAFVASLFLTHRGYASVSQDMGTNGEIYLQDLW” here?
Answer: -0.0149

Question: Which “soluble fraction (log2)” value does the source give for “HMNVWGLSERELEATRLLIEGFSSKEASARMGISPSTVRSLWGRARAKMGVDSIEDARELVA” here?
Answer: -0.273

Question: Which “soluble fraction (log2)” value does the source give for “HMNYAVTAARRESILNAALEIFGKSGYNGSSVKQVALAVGMTEAGVLHHFGTKSNLLIEVLRV” here?
Answer: ≥ 0.43

Question: Which “soluble fraction (log2)” value does the source give for “HMNYLDVNIPVTSAVWMGKQLPEMGTLIYLTPDKDVEGMLFIKQATKDKPDGEYIEAKVLGYKEGRVLFDF” here?
Answer: -1.48

Question: With “HMPAEEVPLYKAVVVTTPPNRLRVRFSPAGDFKRWLQSGEEVDVYQELGDWRRIEPNGWSSAEWLQRVG” as the sequence, how does the “soluble fraction (log2)” value read?
Answer: 0.00708

Question: For “HMPAGWIPARIRLADYPQLRSLAWHVQGIDTLTPTEALDIYERNARHLDAQAMSAQEQDLLASLRLALS”, which “soluble fraction (log2)” value is on record?
Answer: -1.06

Question: With “HMPALPGNELLRNLMLEHGLKQVDLAEIGSQGVVSEILSGKRRINRRHADLLARRFSLPAELFSR” as the sequence, how does the “soluble fraction (log2)” value read?
Answer: -0.0865

Question: Which “soluble fraction (log2)” value does the source give for “HMPANLTPDYFKAEQWYRSASTNEEKMLALEQMLAVMPKHKGTEHLQADLKRKLSQLKDASAQ” here?
Answer: ≥ 0.43

Question: With “HMPAPAPDIPYHSRVSVRRADGFYEGTWTNTAPILDYTGRWMVNVSLGGKRVFVPVEEVVVH” as the sequence, how does the “soluble fraction (log2)” value read?
Answer: -0.384

Question: With “HMPAPKPSGALSLKDEPLYAASDSKRRSGTVSGTYYRWDGENVNGRMRITNKQENIGKAGQVTGWITAH” as the sequence, how does the “soluble fraction (log2)” value read?
Answer: -0.00233

Question: With “HMPASTSIPYSDFISRVESGDVQEAKIGESAITGTYKDGSQFKTVKPPTLDTNLMPTLIQNKVNVVGVEP” as the sequence, how does the “soluble fraction (log2)” value read?
Answer: 0.0215

Question: For “HMPAVGGVVKGAVVSVGRNEVRLDIGGLAIGIIRGPELDKHVDLRIGDEVEATVITLDNEFGELELSL”, which “soluble fraction (log2)” value is on record?
Answer: -1.73

Question: Which “soluble fraction (log2)” value does the source give for “HMPAVTEQTKTNLRRAFWQLYEQKPIQKITVKQITDLAGYNRGTFYLYFKDVYDLLDDIENK” here?
Answer: -0.584

Question: For “HMPAVTEQTRANLRTAFWSLYREKPTSKITVREITDRAGYNRATFYLYYRDVYDLFEQIEQEIL”, which “soluble fraction (log2)” value is on record?
Answer: -1.36

Question: For “HMPDAGQRRYLELVTALAGARSLTIDDLERRAIRFAEWGNGYSGRTARQFIDTLLQDRGVAEEL”, which “soluble fraction (log2)” value is on record?
Answer: -0.935

Question: With “HMPDAIPLETIIKNVNVLAGFLINSKTFTEDDIVMAYNNIMKIKGDHTDEKTLTNDVYTLLTEMN” as the sequence, how does the “soluble fraction (log2)” value read?
Answer: -1.22

Question: With “HMPDIFDRGTAHITDAASGVAITFTRTFRIPPEVTMTHKGGTVVAIARLVGSITTGGFTAVLENT” as the sequence, how does the “soluble fraction (log2)” value read?
Answer: -0.0848

Question: Which “soluble fraction (log2)” value does the source give for “HMPDLQDTLYRLVPEDGSAIGNQSLREKFLSTAKDASDADFEAARDGLVEQGKLTKGKGRGGSVRRAEP” here?
Answer: 0.397

Question: With “HMPDLSMLDEVLDEYRSQAGSLVTVLQKAQDLYGYLPLTILRHIAEEMNIKPAQVYGVATFYTQFRL” as the sequence, how does the “soluble fraction (log2)” value read?
Answer: -0.866

Question: Which “soluble fraction (log2)” value does the source give for “HMPDRQKDIQNWQQIAETLLNMLDKYVAALETGKTGLAEAYKAIFAETLRRLDDRLDPEQFLP” here?
Answer: -1.3

Question: For “HMPDTETLTPRQRQILDLVQELGFTTIETLAERFGVSAQTVRREIIRLQAGNFLQRFHGGAGLASGGIRSA”, which “soluble fraction (log2)” value is on record?
Answer: -0.325

Question: With “HMPDYAFEGVVIKLTHRDYDRWKAGFPDVDLPPYLTARDAWLSEQTPADRKNWFVSTATDLRNFQKREAI” as the sequence, how does the “soluble fraction (log2)” value read?
Answer: -0.362

Question: Which “soluble fraction (log2)” value does the source give for “HMPEDQISYTDLIKQINDGNVEKIKMTVGSTTIKVNLKEQEEPKTAIVPSTQAFIELVQEKVQDGNEITLI” here?
Answer: -0.39

Question: Which “soluble fraction (log2)” value does the source give for “HMPEITPAMIKALLSSLSEELAFASVTKVYAVLHNLFKAALLDDTIDRNPMDKVPRPRKSKDAAL” here?
Answer: -0.424

Question: Which “soluble fraction (log2)” value does the source give for “HMPELPEVETSRRGIEPHLVGATILHAVVRNGRLRWPVSEEIYRLSDQPVLSVQRRAKYLLLELQA” here?
Answer: 0.369

Question: Which “soluble fraction (log2)” value does the source give for “HMPELSPEERAIIETLQKNNDLQVNIIAIKTGMDMGSLSAVLFDLEMKGLVKLLAGGMYHLI” here?
Answer: -0.112
